In the assay the target is IL-1 receptor on the THP-1 human monocyte cell line (human) (UniProt P14778).

Substance IL-1B (ligand) displayed an IL-6 message level (IL-6 mRNA, Northern blot, arbitrary units) (arbitrary units) of 12.

Source of the values: patent US6018029.
